According to paper PMC6555819, “Comprehensive study of nuclear receptor DNA binding provides a revised framework for understanding receptor specificity”:

B1: NRC3_random_hg19_31_o1 (dsDNA)
DNA 1: GCCAAGAGGACTCGCACAGTGGTGCATGGCAGCTTGGCGATTGACAGCGTAGAATGAAGG
DNA 2: CCTTCATTCTACGCTGTCAATCGCCAAGCTGCCATGCACCACTGTGCGAGTCCTCTTGGC
B2: NRC3_wobSeed138_DR5_A8G_o1 (dsDNA)
DNA 1: GCGATACGGGGTCAGCTAGAGGCCAGAGTATGGAAAGCGATTGACAGCGTAGAATGAAGG
DNA 2: CCTTCATTCTACGCTGTCAATCGCTTTCCATACTCTGGCCTCTAGCTGACCCCGTATCGC
B3: NRC3_random_hg19_317_o1 (dsDNA)
DNA 1: GCGCCTCCTTCTTTCCTTTGTCATCTGGTGGTGGGAGCGATTGACAGCGTAGAATGAAGG
DNA 2: CCTTCATTCTACGCTGTCAATCGCTCCCACCACCAGATGACAAAGGAAAGAAGGAGGCGC
B4: NRC3_random_hg19_20_o1 (dsDNA)
DNA 1: GCTACACTCTCCCAAGACTAAACCAGGAAGAAGTTGGCGATTGACAGCGTAGAATGAAGG
DNA 2: CCTTCATTCTACGCTGTCAATCGCCAACTTCTTCCTGGTTTAGTCTTGGGAGAGTGTAGC
B5: NRC3_random_hg19_224_o1 (dsDNA)
DNA 1: GCCTTCCTAACTGAATCACCTCATCAACAGCTAAACGCGATTGACAGCGTAGAATGAAGG
DNA 2: CCTTCATTCTACGCTGTCAATCGCGTTTAGCTGTTGATGAGGTGATTCAGTTAGGAAGGC
B6: NRC3_random_hg19_410_o1 (dsDNA)
DNA 1: GCTAACGAATGATCTTTCTAATGTGTTGTTGAATTCGCGATTGACAGCGTAGAATGAAGG
DNA 2: CCTTCATTCTACGCTGTCAATCGCGAATTCAACAACACATTAGAAAGATCATTCGTTAGC
B7: NRC3_wobSeed136_DR5_G11C_o1 (dsDNA)
DNA 1: GCTAGCCTAGCTCATTCAGGGGCCAGTATAGAAAGCGCGATTGACAGCGTAGAATGAAGG
DNA 2: CCTTCATTCTACGCTGTCAATCGCGCTTTCTATACTGGCCCCTGAATGAGCTAGGCTAGC
B8: NRC3_wobSeed110_DR4_G10T_o1 (dsDNA)
DNA 1: GCTCTGCTATGTCAACGATGGTCAGCTAATCTGCTAGCGATTGACAGCGTAGAATGAAGG
DNA 2: CCTTCATTCTACGCTGTCAATCGCTAGCAGATTAGCTGACCATCGTTGACATAGCAGAGC
B9: NRC3_random_hg19_218_o1 (dsDNA)
DNA 1: GCTTAGTCATGAAGTCTTTGCCCATGCCTGTGTCCTGCGATTGACAGCGTAGAATGAAGG
DNA 2: CCTTCATTCTACGCTGTCAATCGCAGGACACAGGCATGGGCAAAGACTTCATGACTAAGC
B10: NRC3_random_hg19_229_o1 (dsDNA)
DNA 1: GCTAAACTGTATCCACTTACCTTTCTCAGAACCTTTGCGATTGACAGCGTAGAATGAAGG
DNA 2: CCTTCATTCTACGCTGTCAATCGCAAAGGTTCTGAGAAAGGTAAGTGGATACAGTTTAGC
B11: NRC3_random_hg19_313_o1 (dsDNA)
DNA 1: GCACTACATAAGTAATCATCTCCCTCTGCAACTGGGGCGATTGACAGCGTAGAATGAAGG
DNA 2: CCTTCATTCTACGCTGTCAATCGCCCCAGTTGCAGAGGGAGATGATTACTTATGTAGTGC
B12: NRC3_wobSeed58_DR2_G10T_o1 (dsDNA)
DNA 1: GCATCGAAATGTCGTGAGGTGAGTATACAGAAAGGCGCGATTGACAGCGTAGAATGAAGG
DNA 2: CCTTCATTCTACGCTGTCAATCGCGCCTTTCTGTATACTCACCTCACGACATTTCGATGC
B13: NRC3_wobSeed58_DR2_G10C_o1 (dsDNA)
DNA 1: GCATCGAAACGTCGTGAGGTGAGTATACAGAAAGGCGCGATTGACAGCGTAGAATGAAGG
DNA 2: CCTTCATTCTACGCTGTCAATCGCGCCTTTCTGTATACTCACCTCACGACGTTTCGATGC
B14: NRC3_random_hg19_328_o1 (dsDNA)
DNA 1: GCACTTAGAGCCCAGGAGCTTGAGGTCGCAGCTACTGCGATTGACAGCGTAGAATGAAGG
DNA 2: CCTTCATTCTACGCTGTCAATCGCAGTAGCTGCGACCTCAAGCTCCTGGGCTCTAAGTGC
B15: NRC3_random_hg19_159_o1 (dsDNA)
DNA 1: GCGGTTCAACATTCAGCAAACATTGGATGATAGTTTGCGATTGACAGCGTAGAATGAAGG
DNA 2: CCTTCATTCTACGCTGTCAATCGCAAACTATCATCCAATGTTTGCTGAATGTTGAACCGC
B16: NRC3_random_hg19_175_o1 (dsDNA)
DNA 1: GCGAGGAAGCTAAGCACTGCAAGGAAGAGGGTCAGAGCGATTGACAGCGTAGAATGAAGG
DNA 2: CCTTCATTCTACGCTGTCAATCGCTCTGACCCTCTTCCTTGCAGTGCTTAGCTTCCTCGC
B17: NRC3_random_hg19_253_o1 (dsDNA)
DNA 1: GCTAGCCCTCTCAGAGGACAGAGCTAGGATAGCATGGCGATTGACAGCGTAGAATGAAGG
DNA 2: CCTTCATTCTACGCTGTCAATCGCCATGCTATCCTAGCTCTGTCCTCTGAGAGGGCTAGC
B18: NRC3_random_hg19_1_o1 (dsDNA)
DNA 1: GCGTGTTTGATTCTCATTGTCACCTTCTCTAGGCCTGCGATTGACAGCGTAGAATGAAGG
DNA 2: CCTTCATTCTACGCTGTCAATCGCAGGCCTAGAGAAGGTGACAATGAGAATCAAACACGC
B19: NRC3_wobSeed114_DR4_A14C_o1 (dsDNA)
DNA 1: GCAATACAGGGTCCTCGTAGGCCAGAGTACGCACAGGCGATTGACAGCGTAGAATGAAGG
DNA 2: CCTTCATTCTACGCTGTCAATCGCCTGTGCGTACTCTGGCCTACGAGGACCCTGTATTGC
B20: NRC3_random_hg19_168_o1 (dsDNA)
DNA 1: GCACAGAAATGAAATGGGCTATAGAGCTCATCTTCTGCGATTGACAGCGTAGAATGAAGG
DNA 2: CCTTCATTCTACGCTGTCAATCGCAGAAGATGAGCTCTATAGCCCATTTCATTTCTGTGC
B21: NRC3_random_hg19_231_o1 (dsDNA)
DNA 1: GCATTACAAAGGTGCTGGAAAGGCTTGGGAGGAGCAGCGATTGACAGCGTAGAATGAAGG
DNA 2: CCTTCATTCTACGCTGTCAATCGCTGCTCCTCCCAAGCCTTTCCAGCACCTTTGTAATGC
B22: NRC3_random_hg19_51_o1 (dsDNA)
DNA 1: GCGAGAAAGCTGAACTGTCACTCTTTGCTGATGATGGCGATTGACAGCGTAGAATGAAGG
DNA 2: CCTTCATTCTACGCTGTCAATCGCCATCATCAGCAAAGAGTGACAGTTCAGCTTTCTCGC
B23: NRC3_random_hg19_416_o1 (dsDNA)
DNA 1: GCCCTAGTTGGACCTGTGGGAAGGGCACTACTGTTCGCGATTGACAGCGTAGAATGAAGG
DNA 2: CCTTCATTCTACGCTGTCAATCGCGAACAGTAGTGCCCTTCCCACAGGTCCAACTAGGGC
B24: NRC3_wobSeed6_DR0_G17T_o1 (dsDNA)
DNA 1: GCCCTAGCAGGCCAGGTTCACTCAAGCATTTCGCTTGCGATTGACAGCGTAGAATGAAGG
DNA 2: CCTTCATTCTACGCTGTCAATCGCAAGCGAAATGCTTGAGTGAACCTGGCCTGCTAGGGC

Molecular target: PPARa:RXRa (Homo sapiens, UniProt Q07869;P19793 full;full)
Sequence (Q07869 whole entry, chain 1 of 2): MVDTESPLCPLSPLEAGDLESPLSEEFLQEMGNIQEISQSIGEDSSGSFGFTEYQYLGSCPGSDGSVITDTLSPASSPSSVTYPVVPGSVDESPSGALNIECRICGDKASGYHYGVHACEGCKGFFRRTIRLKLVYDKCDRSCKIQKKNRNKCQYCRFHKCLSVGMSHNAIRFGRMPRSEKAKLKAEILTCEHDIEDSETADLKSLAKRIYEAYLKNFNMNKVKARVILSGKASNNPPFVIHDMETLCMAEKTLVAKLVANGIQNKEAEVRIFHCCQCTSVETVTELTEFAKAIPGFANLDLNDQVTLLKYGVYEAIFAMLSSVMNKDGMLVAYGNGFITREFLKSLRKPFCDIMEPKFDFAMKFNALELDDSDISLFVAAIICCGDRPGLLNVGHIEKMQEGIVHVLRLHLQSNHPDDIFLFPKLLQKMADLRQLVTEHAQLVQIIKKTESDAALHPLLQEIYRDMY
Sequence (P19793 whole entry, chain 2 of 2): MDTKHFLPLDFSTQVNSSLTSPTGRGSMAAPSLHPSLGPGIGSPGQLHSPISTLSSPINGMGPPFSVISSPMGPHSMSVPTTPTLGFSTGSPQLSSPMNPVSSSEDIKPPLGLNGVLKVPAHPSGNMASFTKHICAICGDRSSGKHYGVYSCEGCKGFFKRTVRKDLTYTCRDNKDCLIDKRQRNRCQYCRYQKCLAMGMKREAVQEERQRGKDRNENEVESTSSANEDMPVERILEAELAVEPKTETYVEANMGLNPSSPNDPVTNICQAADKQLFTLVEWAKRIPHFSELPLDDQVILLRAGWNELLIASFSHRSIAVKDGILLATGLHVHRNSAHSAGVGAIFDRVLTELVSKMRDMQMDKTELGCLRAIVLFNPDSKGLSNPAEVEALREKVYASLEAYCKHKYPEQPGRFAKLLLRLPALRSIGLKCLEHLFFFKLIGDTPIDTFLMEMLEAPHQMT
Assay: no ligand; PBM; 270 nM : 90 nM RXRa; PBS pH 7.4, 2% milk, 0.02% Triton X-100, 1 mM DTT, BSA, 0.4 mg/ml salmon testes DNA
Conditions: tags: GST kept;His cleaved; copies: 1;1; label: surface-attached array probe
Summary of the method: (§1)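 Probes were double-stranded and carried 34-nt variable regions with direct-repeat seeds, single-nucleotide variants, half-site ablations and random human genomic background sequences, printed on custom Agilent 4×180K protein-binding microarrays. Arrays were incubated 1 h with ligand-free nuclear receptor dimers in PBS pH 7.4, 2% milk, 0.02% Triton X-100, 1 mM DTT, 0.2 mg/mL BSA and 0.4 mg/ml salmon testes DNA. Antibodies against each partner (one per run) detected binding, and scanned fluorescence was regression-normalized. Binding z-scores use the random background probes as reference.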

Going from B1 to B2, the binding signal rises from -0.47 PBM z-score against 500 random probes to 6.77 PBM z-score against 500 random probes.

First: B3
Second: B4
The binding signal of the first is lower: -0.11 PBM z-score against 500 random probes for the first, 0.29 PBM z-score against 500 random probes for the second.

Molecular target: RARg:RXRa (Homo sapiens, UniProt P13631;P19793 full;full)
Sequence (P13631 whole entry, chain 1 of 2): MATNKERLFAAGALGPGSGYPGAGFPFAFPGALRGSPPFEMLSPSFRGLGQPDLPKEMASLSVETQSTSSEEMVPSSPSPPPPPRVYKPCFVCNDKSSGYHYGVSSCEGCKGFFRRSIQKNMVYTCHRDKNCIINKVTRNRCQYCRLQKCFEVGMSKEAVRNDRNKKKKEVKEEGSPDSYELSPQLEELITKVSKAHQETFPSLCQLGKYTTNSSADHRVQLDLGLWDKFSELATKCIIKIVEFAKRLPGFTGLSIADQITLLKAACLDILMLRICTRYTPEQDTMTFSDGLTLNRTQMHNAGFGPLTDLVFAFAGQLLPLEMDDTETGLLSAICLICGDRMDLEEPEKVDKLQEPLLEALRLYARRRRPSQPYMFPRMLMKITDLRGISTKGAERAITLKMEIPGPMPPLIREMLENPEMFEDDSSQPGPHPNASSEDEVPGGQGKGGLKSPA
Sequence (P19793 whole entry, chain 2 of 2): as the sequence (P19793 whole entry, chain 2 of 2) above
Assay: as above
Conditions: tags: His kept;His cleaved; copies: 1;1; label: surface-attached array probe
Summary of the method: as §1

Going from B5 to B6, the binding signal falls from 0.38 PBM z-score against 500 random probes to 0.07 PBM z-score against 500 random probes.

Going from B7 to B8, the binding signal rises from -0.31 PBM z-score against 500 random probes to 0.22 PBM z-score against 500 random probes.

Going from B9 to B10, the binding signal rises from -0.54 PBM z-score against 500 random probes to 0.44 PBM z-score against 500 random probes.

First: B11
Second: B12
The binding signal of the first is lower: 0.18 PBM z-score against 500 random probes for the first, 0.29 PBM z-score against 500 random probes for the second.

Going from B13 to B14, the binding signal falls from 0.27 PBM z-score against 500 random probes to 0.09 PBM z-score against 500 random probes.

Compared with B15, B1 is lower in binding signal: 0.49 PBM z-score against 500 random probes for the first, -0.25 PBM z-score against 500 random probes for the second.

Compared with B16, B2 is higher in binding signal: -0.07 PBM z-score against 500 random probes for the first, 7.98 PBM z-score against 500 random probes for the second.

Going from B17 to B18, the binding signal rises from -0.23 PBM z-score against 500 random probes to 0.33 PBM z-score against 500 random probes.

Going from B19 to B20, the binding signal falls from 0.23 PBM z-score against 500 random probes to -0.02 PBM z-score against 500 random probes.

Going from B21 to B22, the binding signal rises from -0.04 PBM z-score against 500 random probes to 0.04 PBM z-score against 500 random probes.

Going from B23 to B3, the binding signal falls from -0.27 PBM z-score against 500 random probes to -1.07 PBM z-score against 500 random probes.

First: B24
Second: B4
The binding signal of the first is higher: 0.25 PBM z-score against 500 random probes for the first, 0.15 PBM z-score against 500 random probes for the second.
